Test results from publication doi:10.1101/433532.

Molecular target: recombinant CSN^ΔCSNAP complex (eight subunits, WT CSN5) (UniProt Q13098)
Assay: native MS

## CSNAP, recombinant subunit co-expressed in the CSN complex (natural protein)
  stoichiometry N: 1
